Laboratory results taken from article PMC3032881.
Like-named read-outs stand apart in the source and are kept apart here.

Experiments:
[1] = biological target: HLA A*0201 on the surface of TAP deficient T2 cells (human (endogenous in T2 cells)); assay: flow cytometry on cells; T2-binding assay: TAP deficient T2 cells with peptide at 100, 50, 10 and 1 μM in AIM-V, 10 min 37 °C, room temperature overnight, 2 h 37 °C; surface HLA A*0201 stained with anti-human HLA A*0201:RPE; MFI fitted (log(agonist) vs. response) to logEC50
[2] = biological target: soluble recombinant HLA A*0201 (α chain tagged with a biotinylation sequence, with β2m); assay: SPR; real time pMHC stability assay, BIAcore 3000, CM5 chip; ~500 RU of biotinylated refolded pMHCI immobilised on streptavidin; flow 10 μl/min for 15,000 s; Langmuir dissociation analysis converted to half-life
[3] = biological target: HLA A*0201 on the surface of TAP deficient T2 cells (human (endogenous in T2 cells)); assay: flow cytometry on cells; T2-binding assay: TAP deficient T2 cells with peptide at 100, 50, 10 and 1 μM in AIM-V, 10 min 37 °C, room temperature overnight, 2 h 37 °C; surface HLA A*0201 stained with anti-human HLA A*0201:RPE; MFI fitted (log(agonist) vs. response) to logEC50; remark: listed apart in the source
[4] = biological target: soluble recombinant HLA A*0201 (α chain tagged with a biotinylation sequence, with β2m); assay: SPR; real time pMHC stability assay, BIAcore 3000, CM5 chip; ~500 RU of biotinylated refolded pMHCI immobilised on streptavidin; flow 10 μl/min for 15,000 s; Langmuir dissociation analysis converted to half-life; remark: listed apart in the source

LogEC50 [1] [M]	half-life [2] [h]	LogEC50 [3] [M]	half-life [4] [h]	koff [4] [s⁻¹]	Binder
-3.59	5.8				YLEPGPVTA (modifications not checked) [gp100 280-288 peptide YLEPGPVA]
		-4.37	10.1	1.9e-05	SLLMWITQL [NY-ESO-1 157-165 heteroclitic peptide …]
